Numbered stars: 1 amine (or outer) side, 2 acyl side, 3 side chain; on linkers, the order of the positions; unused ones are H or OH. Bridge positions count the residues as written; N and C are the ends. Side chains are listed from the residue outwards. Ends that are not written are not given here. * marks the point of attachment. C20 diacid = O=C(O)CCCCCCCCCCCCCCCCCCC(=O)*; γGlu = O=C(O)[C@H](CCC(=O)[*:2])N[*:1]; AEEA = NCCOCCOCC(=O)O
Assays:
[1] = target: T1, human calcitonin receptor (human, UniProt P30988 25-474); test: cell-based or functional assay
T1 sequence (looked up): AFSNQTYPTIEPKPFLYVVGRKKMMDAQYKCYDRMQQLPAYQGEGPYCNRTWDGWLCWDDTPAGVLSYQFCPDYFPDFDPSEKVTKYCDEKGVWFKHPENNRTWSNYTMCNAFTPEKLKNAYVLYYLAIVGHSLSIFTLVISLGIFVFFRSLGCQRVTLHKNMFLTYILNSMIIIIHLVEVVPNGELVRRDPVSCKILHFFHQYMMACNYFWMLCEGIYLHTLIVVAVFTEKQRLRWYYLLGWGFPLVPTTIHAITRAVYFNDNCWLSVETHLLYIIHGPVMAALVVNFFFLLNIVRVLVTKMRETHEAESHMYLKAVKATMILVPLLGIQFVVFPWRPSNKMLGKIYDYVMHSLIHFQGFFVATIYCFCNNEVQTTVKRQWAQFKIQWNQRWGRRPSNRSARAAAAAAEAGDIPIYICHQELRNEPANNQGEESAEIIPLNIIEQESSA

[2] = target: T2, human amylin receptor (amylin 3(a) receptor: human calcitonin receptor co-expressed with RAMP-3) (human, UniProt P30988 25-474; O60896 24-148, limits assumed); test: cell-based or functional assay
T2 sequence (looked up) 1: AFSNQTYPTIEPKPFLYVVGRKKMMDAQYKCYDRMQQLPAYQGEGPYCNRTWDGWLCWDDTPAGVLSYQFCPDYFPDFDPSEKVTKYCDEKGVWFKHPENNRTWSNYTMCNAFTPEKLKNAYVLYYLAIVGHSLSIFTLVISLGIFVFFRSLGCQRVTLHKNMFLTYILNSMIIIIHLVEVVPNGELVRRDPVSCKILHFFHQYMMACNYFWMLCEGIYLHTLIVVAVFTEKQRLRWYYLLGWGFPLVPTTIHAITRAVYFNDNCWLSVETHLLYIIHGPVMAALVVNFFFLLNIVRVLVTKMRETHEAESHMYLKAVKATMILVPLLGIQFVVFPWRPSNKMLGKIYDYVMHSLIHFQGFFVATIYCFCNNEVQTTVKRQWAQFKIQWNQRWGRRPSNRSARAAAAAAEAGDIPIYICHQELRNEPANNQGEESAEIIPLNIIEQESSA
T2 sequence (looked up) 2: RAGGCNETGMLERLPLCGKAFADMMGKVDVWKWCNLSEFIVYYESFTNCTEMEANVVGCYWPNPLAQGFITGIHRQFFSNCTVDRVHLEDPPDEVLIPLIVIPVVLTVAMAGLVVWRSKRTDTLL

B1: N^ε1-[2-[2-[2-[[(4S)-4-carboxy-4-(19-carboxynonadecanoylamino)butanoyl]amino]ethoxy]ethoxy]acetyl]-[Thr14,Arg17,Pro21,Pro27,Pro31]-h-amylin (peptide)
peptide: K([AEEA-γGlu-C20 diacid])CNTATCATQRLATFLRHSSPNFGAIPSSTPVGSNTY-NH2
modifications: disulfide 2-7; N-terminus assumed
SMILES: CC[C@H](C)[C@H](NC(=O)[C@H](C)NC(=O)CNC(=O)[C@H](Cc1ccccc1)NC(=O)[C@H](CC(N)=O)NC(=O)[C@@H]1CCCN1C(=O)[C@H](CO)NC(=O)[C@H](CO)NC(=O)[C@H](Cc1c[nH]cn1)NC(=O)[C@H](CCCNC(=N)N)NC(=O)[C@H](CC(C)C)NC(=O)[C@H](Cc1ccccc1)NC(=O)[C@@H](NC(=O)[C@H](C)NC(=O)[C@H](CC(C)C)NC(=O)[C@H](CCCNC(=N)N)NC(=O)[C@H](CCC(N)=O)NC(=O)[C@@H](NC(=O)[C@H](C)NC(=O)[C@@H]1CSSC[C@H](NC(=O)[C@@H](N)CCCCNC(=O)COCCOCCNC(=O)CC[C@H](NC(=O)CCCCCCCCCCCCCCCCCCC(=O)O)C(=O)O)C(=O)N[C@@H](CC(N)=O)C(=O)N[C@@H]([C@@H](C)O)C(=O)N[C@@H](C)C(=O)N[C@@H]([C@@H](C)O)C(=O)N1)[C@@H](C)O)[C@@H](C)O)C(=O)N1CCC[C@H]1C(=O)N[C@@H](CO)C(=O)N[C@@H](CO)C(=O)N[C@H](C(=O)N1CCC[C@H]1C(=O)N[C@H](C(=O)NCC(=O)N[C@@H](CO)C(=O)N[C@@H](CC(N)=O)C(=O)N[C@H](C(=O)N[C@@H](Cc1ccc(O)cc1)C(N)=O)[C@@H](C)O)C(C)C)[C@@H](C)O
notes: also called compound 75
B1 was tested, and the “hCTR funct. EC50” value [1] was 9.07 nM and the “hAmylin-R funct. EC50” value [2] was 0.296 nM.

B2: N^ε1-[(4S)-4-carboxy-4-(19-carboxynonadecanoylamino)butanoyl]-[Ala14,Arg17,Pro21,Pro27,His34]-h-amylin (peptide)
peptide: K([γGlu-C20 diacid])CNTATCATQRLAAFLRHSSPNFGAIPSSTNVGHNTY-NH2
modifications: disulfide 2-7; N-terminus assumed
SMILES: CC[C@H](C)[C@H](NC(=O)[C@H](C)NC(=O)CNC(=O)[C@H](Cc1ccccc1)NC(=O)[C@H](CC(N)=O)NC(=O)[C@@H]1CCCN1C(=O)[C@H](CO)NC(=O)[C@H](CO)NC(=O)[C@H](Cc1c[nH]cn1)NC(=O)[C@H](CCCNC(=N)N)NC(=O)[C@H](CC(C)C)NC(=O)[C@H](Cc1ccccc1)NC(=O)[C@H](C)NC(=O)[C@H](C)NC(=O)[C@H](CC(C)C)NC(=O)[C@H](CCCNC(=N)N)NC(=O)[C@H](CCC(N)=O)NC(=O)[C@@H](NC(=O)[C@H](C)NC(=O)[C@@H]1CSSC[C@H](NC(=O)[C@@H](N)CCCCNC(=O)CC[C@H](NC(=O)CCCCCCCCCCCCCCCCCCC(=O)O)C(=O)O)C(=O)N[C@@H](CC(N)=O)C(=O)N[C@@H]([C@@H](C)O)C(=O)N[C@@H](C)C(=O)N[C@@H]([C@@H](C)O)C(=O)N1)[C@@H](C)O)C(=O)N1CCC[C@H]1C(=O)N[C@@H](CO)C(=O)N[C@@H](CO)C(=O)N[C@H](C(=O)N[C@@H](CC(N)=O)C(=O)N[C@H](C(=O)NCC(=O)N[C@@H](Cc1c[nH]cn1)C(=O)N[C@@H](CC(N)=O)C(=O)N[C@H](C(=O)N[C@@H](Cc1ccc(O)cc1)C(N)=O)[C@@H](C)O)C(C)C)[C@@H](C)O
notes: also called compound 93
B2 was tested, and the “hCTR funct. EC50” value [1] was 1.15 nM, the “Ratio hCT/hAmylin funct.” value [2] was 9.7 and the “hAmylin-R funct. EC50” value [2] was 0.118 nM.

B3: N^ε1-[(4S)-4-carboxy-4-(19-carboxynonadecanoylamino)butanoyl]-[Arg14,Arg17,Pro21,Pro27,Pro31]-h-amylin (peptide)
peptide: K([γGlu-C20 diacid])CNTATCATQRLARFLRHSSPNFGAIPSSTPVGSNTY-NH2
modifications: disulfide 2-7; N-terminus assumed
SMILES: CC[C@H](C)[C@H](NC(=O)[C@H](C)NC(=O)CNC(=O)[C@H](Cc1ccccc1)NC(=O)[C@H](CC(N)=O)NC(=O)[C@@H]1CCCN1C(=O)[C@H](CO)NC(=O)[C@H](CO)NC(=O)[C@H](Cc1c[nH]cn1)NC(=O)[C@H](CCCNC(=N)N)NC(=O)[C@H](CC(C)C)NC(=O)[C@H](Cc1ccccc1)NC(=O)[C@H](CCCNC(=N)N)NC(=O)[C@H](C)NC(=O)[C@H](CC(C)C)NC(=O)[C@H](CCCNC(=N)N)NC(=O)[C@H](CCC(N)=O)NC(=O)[C@@H](NC(=O)[C@H](C)NC(=O)[C@@H]1CSSC[C@H](NC(=O)[C@@H](N)CCCCNC(=O)CC[C@H](NC(=O)CCCCCCCCCCCCCCCCCCC(=O)O)C(=O)O)C(=O)N[C@@H](CC(N)=O)C(=O)N[C@@H]([C@@H](C)O)C(=O)N[C@@H](C)C(=O)N[C@@H]([C@@H](C)O)C(=O)N1)[C@@H](C)O)C(=O)N1CCC[C@H]1C(=O)N[C@@H](CO)C(=O)N[C@@H](CO)C(=O)N[C@H](C(=O)N1CCC[C@H]1C(=O)N[C@H](C(=O)NCC(=O)N[C@@H](CO)C(=O)N[C@@H](CC(N)=O)C(=O)N[C@H](C(=O)N[C@@H](Cc1ccc(O)cc1)C(N)=O)[C@@H](C)O)C(C)C)[C@@H](C)O
notes: also called compound 63
In the case of B3, the “hCTR funct. EC50” value [1] is reported as 5.13 nM and the “hAmylin-R funct. EC50” value [2] is reported as 0.037 nM.

B4: N^ε1-[(4S)-4-carboxy-4-(19-carboxynonadecanoylamino)butanoyl]-[Arg14,Arg17,Pro21,Pro27,Pro34]-h-amylin (peptide)
peptide: K([γGlu-C20 diacid])CNTATCATQRLARFLRHSSPNFGAIPSSTNVGPNTY-NH2
modifications: disulfide 2-7; N-terminus assumed
SMILES: CC[C@H](C)[C@H](NC(=O)[C@H](C)NC(=O)CNC(=O)[C@H](Cc1ccccc1)NC(=O)[C@H](CC(N)=O)NC(=O)[C@@H]1CCCN1C(=O)[C@H](CO)NC(=O)[C@H](CO)NC(=O)[C@H](Cc1c[nH]cn1)NC(=O)[C@H](CCCNC(=N)N)NC(=O)[C@H](CC(C)C)NC(=O)[C@H](Cc1ccccc1)NC(=O)[C@H](CCCNC(=N)N)NC(=O)[C@H](C)NC(=O)[C@H](CC(C)C)NC(=O)[C@H](CCCNC(=N)N)NC(=O)[C@H](CCC(N)=O)NC(=O)[C@@H](NC(=O)[C@H](C)NC(=O)[C@@H]1CSSC[C@H](NC(=O)[C@@H](N)CCCCNC(=O)CC[C@H](NC(=O)CCCCCCCCCCCCCCCCCCC(=O)O)C(=O)O)C(=O)N[C@@H](CC(N)=O)C(=O)N[C@@H]([C@@H](C)O)C(=O)N[C@@H](C)C(=O)N[C@@H]([C@@H](C)O)C(=O)N1)[C@@H](C)O)C(=O)N1CCC[C@H]1C(=O)N[C@@H](CO)C(=O)N[C@@H](CO)C(=O)N[C@H](C(=O)N[C@@H](CC(N)=O)C(=O)N[C@H](C(=O)NCC(=O)N1CCC[C@H]1C(=O)N[C@@H](CC(N)=O)C(=O)N[C@H](C(=O)N[C@@H](Cc1ccc(O)cc1)C(N)=O)[C@@H](C)O)C(C)C)[C@@H](C)O
notes: also called compound 65
With B4 the “hCTR funct. EC50” value [1] was 9.33 nM and the “hAmylin-R funct. EC50” value [2] was 0.242 nM.

B5: N^ε1-[(4S)-4-carboxy-4-(19-carboxynonadecanoylamino)butanoyl]-[Arg14,Arg17,Pro21,Pro27]-h-amylin (peptide)
peptide: K([γGlu-C20 diacid])CNTATCATQRLARFLRHSSPNFGAIPSSTNVGSNTY-NH2
modifications: disulfide 2-7; N-terminus assumed
SMILES: CC[C@H](C)[C@H](NC(=O)[C@H](C)NC(=O)CNC(=O)[C@H](Cc1ccccc1)NC(=O)[C@H](CC(N)=O)NC(=O)[C@@H]1CCCN1C(=O)[C@H](CO)NC(=O)[C@H](CO)NC(=O)[C@H](Cc1c[nH]cn1)NC(=O)[C@H](CCCNC(=N)N)NC(=O)[C@H](CC(C)C)NC(=O)[C@H](Cc1ccccc1)NC(=O)[C@H](CCCNC(=N)N)NC(=O)[C@H](C)NC(=O)[C@H](CC(C)C)NC(=O)[C@H](CCCNC(=N)N)NC(=O)[C@H](CCC(N)=O)NC(=O)[C@@H](NC(=O)[C@H](C)NC(=O)[C@@H]1CSSC[C@H](NC(=O)[C@@H](N)CCCCNC(=O)CC[C@H](NC(=O)CCCCCCCCCCCCCCCCCCC(=O)O)C(=O)O)C(=O)N[C@@H](CC(N)=O)C(=O)N[C@@H]([C@@H](C)O)C(=O)N[C@@H](C)C(=O)N[C@@H]([C@@H](C)O)C(=O)N1)[C@@H](C)O)C(=O)N1CCC[C@H]1C(=O)N[C@@H](CO)C(=O)N[C@@H](CO)C(=O)N[C@H](C(=O)N[C@@H](CC(N)=O)C(=O)N[C@H](C(=O)NCC(=O)N[C@@H](CO)C(=O)N[C@@H](CC(N)=O)C(=O)N[C@H](C(=O)N[C@@H](Cc1ccc(O)cc1)C(N)=O)[C@@H](C)O)C(C)C)[C@@H](C)O
notes: also called compound 83
B5 was tested, and the “hCTR funct. EC50” value [1] was 16.8 nM, the “Ratio hCT/hAmylin funct.” value [2] was 41.6 and the “hAmylin-R funct. EC50” value [2] was 0.405 nM.

B6: N^ε1-[(4S)-4-carboxy-4-(19-carboxynonadecanoylamino)butanoyl]-[Arg17,Pro21,Pro27,Arg34]-h-amylin (peptide)
peptide: K([γGlu-C20 diacid])CNTATCATQRLANFLRHSSPNFGAIPSSTNVGRNTY-NH2
modifications: disulfide 2-7; N-terminus assumed
SMILES: CC[C@H](C)[C@H](NC(=O)[C@H](C)NC(=O)CNC(=O)[C@H](Cc1ccccc1)NC(=O)[C@H](CC(N)=O)NC(=O)[C@@H]1CCCN1C(=O)[C@H](CO)NC(=O)[C@H](CO)NC(=O)[C@H](Cc1c[nH]cn1)NC(=O)[C@H](CCCNC(=N)N)NC(=O)[C@H](CC(C)C)NC(=O)[C@H](Cc1ccccc1)NC(=O)[C@H](CC(N)=O)NC(=O)[C@H](C)NC(=O)[C@H](CC(C)C)NC(=O)[C@H](CCCNC(=N)N)NC(=O)[C@H](CCC(N)=O)NC(=O)[C@@H](NC(=O)[C@H](C)NC(=O)[C@@H]1CSSC[C@H](NC(=O)[C@@H](N)CCCCNC(=O)CC[C@H](NC(=O)CCCCCCCCCCCCCCCCCCC(=O)O)C(=O)O)C(=O)N[C@@H](CC(N)=O)C(=O)N[C@@H]([C@@H](C)O)C(=O)N[C@@H](C)C(=O)N[C@@H]([C@@H](C)O)C(=O)N1)[C@@H](C)O)C(=O)N1CCC[C@H]1C(=O)N[C@@H](CO)C(=O)N[C@@H](CO)C(=O)N[C@H](C(=O)N[C@@H](CC(N)=O)C(=O)N[C@H](C(=O)NCC(=O)N[C@@H](CCCNC(=N)N)C(=O)N[C@@H](CC(N)=O)C(=O)N[C@H](C(=O)N[C@@H](Cc1ccc(O)cc1)C(N)=O)[C@@H](C)O)C(C)C)[C@@H](C)O
notes: also called compound 79
In the case of B6, the “hCTR funct. EC50” value [1] is reported as 3.94 nM, the “Ratio hCT/hAmylin funct.” value [2] is reported as 24.5 and the “hAmylin-R funct. EC50” value [2] is reported as 0.161 nM.

Reference: patent US20140087995A1 (published 2014)
